From US20250326828A1 (STAIDSON BEIJING BIOPHARMACEUTICALS, published 2025) come the findings set out here.

Residue numbers refer to the chain shown, from its start. Read-outs that look alike come from different tables or passages of the source.

Assay [1] deals with T1, human GDF15-his (human).
T1 chain: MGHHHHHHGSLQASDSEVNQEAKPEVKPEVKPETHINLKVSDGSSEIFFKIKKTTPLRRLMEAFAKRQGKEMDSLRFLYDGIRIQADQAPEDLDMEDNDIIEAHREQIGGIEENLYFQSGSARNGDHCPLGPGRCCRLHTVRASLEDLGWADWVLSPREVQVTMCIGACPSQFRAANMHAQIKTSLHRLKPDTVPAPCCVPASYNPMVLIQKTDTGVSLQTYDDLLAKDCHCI
Put plainly: cell-based or functional assay.

Assay [2] concerns the target T2, human GDF15-hFc (human).
T2 construct: Recombinant hFc-tagged fusion protein expressed in 293F cells
T2 chain: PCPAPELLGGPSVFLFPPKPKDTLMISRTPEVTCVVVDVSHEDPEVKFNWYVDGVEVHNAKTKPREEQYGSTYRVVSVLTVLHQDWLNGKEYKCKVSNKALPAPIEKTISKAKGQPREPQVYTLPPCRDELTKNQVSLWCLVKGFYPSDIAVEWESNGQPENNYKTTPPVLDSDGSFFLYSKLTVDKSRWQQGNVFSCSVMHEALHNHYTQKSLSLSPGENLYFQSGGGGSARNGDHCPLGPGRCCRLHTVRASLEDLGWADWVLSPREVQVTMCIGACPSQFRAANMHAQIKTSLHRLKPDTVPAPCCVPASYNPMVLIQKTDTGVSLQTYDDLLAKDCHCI
Put plainly: SPR, Biacore 8K; antibody on CM5 chip. Here is the method: (§1) The binding affinity of anti-GDF15 antibodies for human GDF15, rhesus monkey GDF15, mouse GDF15 were characterized using Biacore 8K (GE). The anti-GDF15 antibodies were stabilized on sensor chip CM5. The binding affinity of antibody for GDF15 proteins from different species at various concentrations was measured. Using the SPR technology, the association and dissociation rates were measured, and binding affinity was determined.

For assay [3], the target named is T3, rhesus monkey GDF15-hFc (rhesus monkey).
T3 chain: T2 chain with H237R, R252H, A285E, T294M, S295N, I343V
Put plainly: SPR, Biacore 8K; antibody on CM5 chip. On the procedure: as §1
(Surface plasmon resonance follows binding to a sensor surface in real time, without labels.)

Assay [4] addresses T4, mouse GDF15-hFc (mouse).
T4 chain: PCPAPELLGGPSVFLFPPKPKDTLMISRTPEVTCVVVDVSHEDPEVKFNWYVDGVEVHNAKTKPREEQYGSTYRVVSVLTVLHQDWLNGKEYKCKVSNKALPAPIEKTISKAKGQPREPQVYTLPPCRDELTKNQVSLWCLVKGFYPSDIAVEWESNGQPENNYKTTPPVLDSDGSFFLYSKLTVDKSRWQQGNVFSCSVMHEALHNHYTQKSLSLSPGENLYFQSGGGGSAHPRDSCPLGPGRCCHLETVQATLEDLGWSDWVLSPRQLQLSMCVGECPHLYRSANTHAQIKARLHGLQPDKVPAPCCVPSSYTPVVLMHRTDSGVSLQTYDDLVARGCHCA
Put plainly: SPR, Biacore 8K; antibody on CM5 chip. Here is the method: as §1

The target of assay [5] is T2, human GDF15-hFc. In words: competition ELISA as in Example 2; GFRAL-his coated, antibody titrated against human GDF15-hFc. Here is the method:
The ELISA assay was performed to measure the inhibitory activity of anti-GDF15 antibodies in concentration gradients to block GDF15 binding to GFRAL receptor. IC₅₀ values were used as a measure for neutralizing activity of candidate molecules. Briefly, 96-well plates were coated with 100 ng/well of GFRAL-his protein (SEQ ID NO: 74), and incubated for 1 h at 37° C. The plates were washed with PBST and then blocked for 1 hour at 37° C. with 1% BSA. Gradient-diluted antibodies (dose range 0˜10 μg/ml) was added into each well, immediately followed by equal volume of human GDF15-hFc protein ([…]). After incubation and washing, 100 μl of anti-human IgG secondary antibody (goat anti-human IgG-HRP, Sigma, A8667) was added to each well. Finally, TMB solution (100 μl/well) was added. 2M H₂SO₄ was used to stop the reaction. The OD450 was measured and the binding curve was generated by PRISM to calculate the IC₅₀ value.
Background: ELISA stands for enzyme-linked immunosorbent assay.

Assay [6] has as its target T1, human GDF15-his. In words: ELISA as in Example 2: plate coated with the antibody, graded human GDF15-his, anti-his-HRP, OD450; the sheet's x axis reads 'Log GDF15 Antibody (nM)'. On the procedure:
(§2) ELISA binding assay: The purified monoclonal antibody was subjected to a binding assay with human GDF15-his protein. The binding assay was designed to characterize the binding activity of the anti-GDF15 antibody. Briefly, a 96-well plate was coated with anti-GDF15 antibody (200 ng/well) and incubated for 1 hour at 37° C. The plates were washed with PBST and then blocked for 1 hour at room temperature using 1% BSA. Then 100 µl/well of gradient-diluted human GDF15-his solution (dose range 0-50 μg/ml) was added into plates. After incubation, 100 μl of anti-his tag secondary antibody (anti-his-HRP (1:2000), Bersee, cat #BHR790) was added to each well. Finally, the TMB solution (100 μl/well) was added. 2M H₂SO₄ was used to stop the reaction. The OD450 was measured, and the binding curves were generated by PRISM software to analyze the affinity of candidate antibodies to human GDF15 antigen, and EC₅₀ value were calculated.

Assay [7] has as its target T1, human GDF15-his. Described as above. Here is the method:
as §2

In assay [8] the target is T1, human GDF15-his. In words: ELISA as in Example 2: plate coated with the antibody, graded human GDF15-his, anti-his-HRP, OD450; the sheet's x axis reads 'Log GDF15 antibody (nM)'. Here is the method: as §2
Assay [9] addresses T1, human GDF15-his. Put plainly: cell-based or functional assay.

B1: hum_R37-5 (antibody, V domains shown)
VH: EVQLVESGGGLVKPGGSLRLSCAASGFSLSNYYMSWVRQAPGKGLEWVGMISFSGTTYATWAKGRFTISRDDSKNTVYLQINSLKTEDTAVYFCARVVYAGWTYPLGIWGQGTLVTVSS
VL: DIQLTQSPSSLSASVGDRVTITCQASQSISSVLSWYQQKPGKPPKALIYEASILASGVPSRFSGSGSGTDFTLTISSLQPEDFATYYCQANYDVYNYGNPFGGGTKVEIK
notes: Tested in human IgG1 format
B1: in assay [1], the “IC50 (read off the curve), SRE-luciferase signal in 293T-GFRAL/RET-Luc cells with human GDF15-his” value is approximately 0.1 nM. Moreover, in assay [2], the Kd (as a rule, the free concentration of one partner at which half of the binding sites on the other are occupied at equilibrium, for simple one-to-one binding) was 0.584 nM; the koff (commonly the first-order rate constant of dissociation) amounted to 6.95e-05 s⁻¹; the kon (in general, the second-order rate constant of association) was 119000 M⁻¹ s⁻¹. In [3], the Kd turned out to be 1.23 nM, the koff came out at 0.00421 s⁻¹ and the kon came out at 3.43e+06 M⁻¹ s⁻¹. In [4], the Kd came to 106 nM, the koff came out at 0.000869 s⁻¹ and the kon amounted to 8210 M⁻¹ s⁻¹. Further, the concentration for half-maximal inhibition (IC50) (usually the concentration that gives 50% inhibition) in [5] is 1.9 nM. Also, in assay [6], the 50% effective concentration (EC50 (read off the curve)) (as a rule, the concentration that produces a half-maximal response) is approximately 60 nM.

B2: hum_R37-2 (antibody, V domains shown)
VH: EVQLVESGGGLVKPGGSLRLSCAASGFSLSNYYMSWVRQAPGKGLEWIGMISFSGTTYATWAKGRFTISKDSSTVYLQINSLKTEDTAVYFCARVVYAGWTYPLGIWGQGTLVTVSS
VL: B1 VL
notes: Tested in human IgG1 format
Consider B2, for which the “IC50 (read off the curve), SRE-luciferase signal in 293T-GFRAL/RET-Luc cells with human GDF15-his” value in assay [1] was approximately 0.1 nM. Also, the Kd in assay [2] is 1.07 nM; in [3], 1.28 nM; in [4], 118 nM. Further, the koff was 0.000137 s⁻¹ in assay [2], 0.00263 s⁻¹ in [3] and 0.00175 s⁻¹ in assay [4]. In addition, the figures for the kon in assay [2], in assay [3] and in [4] were 129000 M⁻¹ s⁻¹, 2.06e+06 M⁻¹ s⁻¹ and 14800 M⁻¹ s⁻¹, respectively. Also, the IC50 in assay [5] is 1.72 nM. The “EC50 (read off the curve)” value in [6] is approximately 60 nM.

B3: hum_R37-8 (antibody, V domains shown)
VH: B2 VH
VL: B1 VL with L4M
notes: Tested in human IgG1 format
With B3, in [1], the “IC50 (read off the curve), SRE-luciferase signal in 293T-GFRAL/RET-Luc cells with human GDF15-his” value is approximately 0.1 nM. In assay [2], this molecule displayed a Kd of 0.607 nM, a koff of 8.46e-05 s⁻¹ and a kon of 139000 M⁻¹ s⁻¹. In assay [3], this molecule registered a Kd of 1.09 nM, a koff of 0.002 s⁻¹ and an on-rate (kon) of 1.84e+06 M⁻¹ s⁻¹. In assay [4], this molecule came in with a Kd of 101 nM, a koff of 0.0017 s⁻¹ and a kon of 16800 M⁻¹ s⁻¹. The IC50 in assay [5] was 1.59 nM. In addition, the “EC50 (read off the curve)” value in [7] was approximately 80 nM.

B4: hum_R37-18 (antibody, V domains shown)
VH: B1 VH with V77L, I81M
VL: B1 VL with L4M, A46L
notes: Tested in human IgG1 format
Turning to B4, in [8], the “EC50 (read off the curve)” value is approximately 200 nM. In addition, the IC50 in assay [5] came out at 0.88 nM. Also, the “IC50 (read off the curve), SRE-luciferase signal in 293T-GFRAL/RET-Luc cells with human GDF15-his” value in [9] is approximately 0.2 nM.

B5: hum_R37-11 (antibody, V domains shown)
VH: B1 VH
VL: B1 VL with L4M
notes: Tested in human IgG1 format
For the molecule B5, in assay [5], the IC50 is 1.9 nM. In addition, the “IC50 (read off the curve), SRE-luciferase signal in 293T-GFRAL/RET-Luc cells with human GDF15-his” value in assay [9] is approximately 0.1 nM. Moreover, the “EC50 (read off the curve)” value in [7] was approximately 80 nM.

B6: hum_R37-14 (antibody, V domains shown)
VH: B2 VH
VL: B1 VL with L4M, A46L
notes: Tested in human IgG1 format
Consider B6, for which, in [8], the “EC50 (read off the curve)” value is approximately 200 nM. The same molecule gave an IC50 in [5] of 1.51 nM. The “IC50 (read off the curve), SRE-luciferase signal in 293T-GFRAL/RET-Luc cells with human GDF15-his” value in [9] was approximately 0.2 nM.

B7: hum_R37-15 (antibody, V domains shown)
VH: B1 VH with V48I, R70K
VL: B1 VL with L4M, A46L
notes: Tested in human IgG1 format
On to B7, for which, in assay [8], the “EC50 (read off the curve)” value was approximately 200 nM. Also, the IC50 in assay [5] stood at 1.59 nM. Further, the “IC50 (read off the curve), SRE-luciferase signal in 293T-GFRAL/RET-Luc cells with human GDF15-his” value in assay [9] is approximately 0.2 nM.

B8: hum_R37-9 (antibody, V domains shown)
VH: B1 VH with V48I, R70K
VL: B1 VL with L4M
notes: Tested in human IgG1 format
Regarding B8, the IC50 in assay [5] was determined as 1.82 nM. In addition, the “IC50 (read off the curve), SRE-luciferase signal in 293T-GFRAL/RET-Luc cells with human GDF15-his” value in assay [9] was approximately 0.2 nM. In addition, the “EC50 (read off the curve)” value in [7] was approximately 80 nM.

B9: hum_R37-7 (antibody, V domains shown)
VH: B1 VH with V48I, R70K, D72S
VL: B1 VL with L4M
notes: Tested in human IgG1 format
With B9, the “IC50 (read off the curve), SRE-luciferase signal in 293T-GFRAL/RET-Luc cells with human GDF15-his” value in assay [1] was approximately 0.1 nM. This molecule also gave an IC50 in assay [5] of 2.31 nM. In addition, the “EC50 (read off the curve)” value in [7] is approximately 80 nM.

B10: hum_R37-13 (antibody, V domains shown)
VH: B1 VH with V48I, R70K, D72S
VL: B1 VL with L4M, A46L
notes: Tested in human IgG1 format
B10: the “EC50 (read off the curve)” value in assay [8] was approximately 200 nM. In [5], this molecule showed an IC50 of 2.06 nM. In assay [9], the “IC50 (read off the curve), SRE-luciferase signal in 293T-GFRAL/RET-Luc cells with human GDF15-his” value was approximately 0.1 nM.
